Data from JP2000515494A (dated 2000).

Target: T1, 4A6/IL-5複合体 (hIL-5 captured on immobilised mAb 4A6) (human, UniProt P05113 20-134)
T1 construct: also called 4A6/IL-5 complex
Assay: BIAcore: mAb 4A6 immobilised, hIL-5 captured, IL-5Rα injected at 15, 30, 60, 120 nM

T1 sequence (P05113 20-134): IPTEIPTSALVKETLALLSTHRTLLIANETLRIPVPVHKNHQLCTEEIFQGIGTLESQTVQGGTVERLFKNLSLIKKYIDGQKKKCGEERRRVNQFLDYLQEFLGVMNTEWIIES

koff: 0.0023 s⁻¹
kon: 630000 M⁻¹ s⁻¹
B1: 可溶性IL-5レセプターα鎖 (soluble IL-5 receptor alpha chain) (receptor, UniProt Q01344 21-335, looked up)
chain: DLLPDEKISLLPPVNFTIKVTGLAQVLLQWKPNPDQEQRNVNLEYQVKINAPKEDDYETRITESKCVTILHKGFSASVRTILQNDHSLLASSWASAELHAPPGSPGTSIVNLTCTTNTTEDNYSRLRSYQVSLHCTWLVGTDAPEDTQYFLYYRYGSWTEECQEYSKDTLGRNIACWFPRTFILSKGRDWLAVLVNGSSKHSAIRPFDQLFALHAIDQINPPLNVTAEIEGTRLSIQWEKPVSAFPIHCFDYEVKIHNTRNGYLQIEKLMTNAFISIIDDLSKYDVQVRAAVSSMCREAGLWSEWSQPIYVGNDE
notes: also called IL-5Pα [sic]
